This is an account of results in PMC3633087.

The target in this assay is p11-AnxA2 peptide cassette (UniProt P60903). In words: crystal structure.

With “p11-AnxA2 peptide cassette (from UniProt P60903 1-97)”, the stoichiometry N (commonly a count of units in the complex or per binding partner) stood at 2.
